Results on three molecules are retold here after paper PMC11924951 (The Journal of Experimental Medicine, 2025).

Holding throughout (settings): both partners purified
In one experiment the target is T1, Fc-tagged IFNα1 (human, UniProt P0DY56).
T1 construct: interferon alpha-1 (IFNα1), human; source: bought: ACROBiosystems (IFA-H5258)
Nature of the experiment: BLI; blocking format: IFN-I preincubated 1 h at room temperature with rontalizumab (1:50), sifalimumab (1:50) or plasma (1:10) in assay buffer with 50% goat serum; His-tagged IFNAR1 or IFNAR2 loaded on Ni-NTA biosensors, blocked in 100% goat serum; association 120 s. Background: BLI is a label-free optical method that tracks binding on a fibre tip over time.

The target of the next experiment is T2, His-tagged IFNAR1 (human, UniProt P17181 28-436).
T2 construct: interferon alpha/beta receptor 1 (IFNAR1), human; Soluble recombinant receptor subunit loaded on Ni-NTA biosensors; source: bought: ACROBiosystems (IF1-H5225)
T2 sequence (looked up): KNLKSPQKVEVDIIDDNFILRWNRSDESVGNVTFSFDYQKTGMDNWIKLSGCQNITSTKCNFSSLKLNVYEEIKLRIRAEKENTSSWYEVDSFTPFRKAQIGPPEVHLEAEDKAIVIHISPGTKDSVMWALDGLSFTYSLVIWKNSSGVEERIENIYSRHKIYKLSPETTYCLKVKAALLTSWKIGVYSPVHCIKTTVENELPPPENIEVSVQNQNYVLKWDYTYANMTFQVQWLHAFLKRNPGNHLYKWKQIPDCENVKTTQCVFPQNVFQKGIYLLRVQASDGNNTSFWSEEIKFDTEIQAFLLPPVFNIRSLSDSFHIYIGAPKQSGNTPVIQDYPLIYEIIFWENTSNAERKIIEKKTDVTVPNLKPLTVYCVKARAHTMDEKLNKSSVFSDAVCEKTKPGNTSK
Nature of the experiment: BLI; His-tagged IFNAR1 (25 nM) or IFNAR2 (100 nM) loaded on Ni-NTA biosensors for 600 s; IFN-I in solution, association 60-120 s, dissociation 120 s; 0.02% Tween-20, 0.1% BSA in 1x PBS, pH 7.4; Octet R2.

For another experiment, the target named is T3, His-tagged IFNAR2 (human, UniProt P48551 27-243).
T3 construct: interferon alpha/beta receptor 2 (IFNAR2), human; Soluble recombinant receptor subunit loaded on Ni-NTA biosensors; source: bought: ACROBiosystems (IF2-H5224)
T3 sequence (looked up): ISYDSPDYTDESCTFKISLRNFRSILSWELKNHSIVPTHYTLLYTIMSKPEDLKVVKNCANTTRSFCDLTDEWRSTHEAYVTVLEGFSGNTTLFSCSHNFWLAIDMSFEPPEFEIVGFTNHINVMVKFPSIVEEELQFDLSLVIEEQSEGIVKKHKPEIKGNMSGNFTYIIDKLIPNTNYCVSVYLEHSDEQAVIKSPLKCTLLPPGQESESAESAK
The experiment is described as above.

B1: sifalimumab (antibody, V domains shown)
VH: QVQLVQSGAEVKKPGASVKVSCKASGYTFTSYSISWVRQAPGQGLEWMGWISVYNGNTNYAQKFQGRVTMTTDTSTSTAYLELRSLRSDDTAVYYCARDPIAAGYWGQGTLVTVSS
VL: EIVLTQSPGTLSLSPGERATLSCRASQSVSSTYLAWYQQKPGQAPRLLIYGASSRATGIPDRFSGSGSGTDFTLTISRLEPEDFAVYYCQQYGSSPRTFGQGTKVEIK
notes: source: bought: Thermo Fisher Scientific (MA5-41904)
With B1, in the experiment with Fc-tagged IFNα1, the binding result is “binds”.

B2: Fc-tagged IFNα1 (Fc fusion, human, UniProt P0DY56 24-189, looked up)
chain: CDLPETHSLDNRRTLMLLAQMSRISPSSCLMDRHDFGFPQEEFDGNQFQKAPAISVLHELIQQIFNLFTTKDSSAAWDEDLLDKFCTELYQQLNDLEACVMQEERVGETPLMNADSILAVKKYFRRITLYLTEKKYSPCAWEVVRAEIMRSLSLSTNLQERLRRKE
notes: interferon alpha-1 (IFNα1), human; source: bought: ACROBiosystems (IFA-H5258)
Consider B2, for which the binding result in the experiment with His-tagged IFNAR1 and in the experiment with His-tagged IFNAR2 was “binds” throughout.

B3: rontalizumab (antibody, V domains shown)
VH: EVQLVESGGGLVQPGGSLRLSCATSGYTFTEYIIHWVRQAPGKGLEWVASINPDYDITNYNQRFKGRFTISLDKSKRTAYLQMNSLRAEDTAVYYCASWISDFFDYWGQGTLVTVSS
VL: DIQMTQSPSSLSASVGDRVTITCRASQSVSTSSYSYMHWYQQKPGKAPKVLISYASNLESGVPSRFSGSGSGTDFTLTISSLQPEDFATYYCQHSWGIPRTFGQGTKVEIK
notes: source: bought: Thermo Fisher Scientific (MA5-41908)
As for B3, the binding result in the experiment with Fc-tagged IFNα1 is listed as “binds”.
